The source of these data is US20230192860A1 (published 2023).

The target of assay [1] is T1, monovalent hVISTA-ECD (amino acids 32-193 of SEQ ID NO: 1 with a 7xHis tail) (UniProt Q9H7M9 33-193). Briefly: SPR; pH 6.0.
Assay [2] addresses T1, monovalent hVISTA-ECD (amino acids …). Briefly: SPR; pH 6.7. Background: In SPR one partner is held on a chip, and binding of the other changes the refractive index at the surface.
For assay [3] the target is unchanged. Briefly: SPR; pH 7.4.
For assay [4] the target is unchanged. Briefly: SPR; pH 6.0. The source holds these as a separate data set.
Assay [5] shares this target. Briefly: SPR; pH 6.7. This is another data set of the same source.

The term Kd denotes the free concentration of one partner at which half of the binding sites on the other are occupied at equilibrium, for simple one-to-one binding. A lower Kd goes with tighter binding.

T1 sequence (Q9H7M9 other isoform, or with tags, fused parts or gaps): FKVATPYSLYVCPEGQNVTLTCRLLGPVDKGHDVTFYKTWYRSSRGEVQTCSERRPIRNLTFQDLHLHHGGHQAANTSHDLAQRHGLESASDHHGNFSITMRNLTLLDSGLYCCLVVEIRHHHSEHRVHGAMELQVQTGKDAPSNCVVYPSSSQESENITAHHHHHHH

B1: P1-068761_H100G_E100fF (antibody, V domains shown)
VH: EVQLVESGGGLVQPGKSLRLSCAASGFTLEDEAMHWVRQAPGKGLEWVSGINWNSEEIGYADSVKGRFTISRDNAKNSLYLQMNSLRTEDTALYYCAKVPGYSGGWIDAFDVWGQGTMVTVSS
VL: not shown
On to B1, for which the figures for the Kd in assay [1], in assay [2] and in assay [3] were 0.23 nM, 2.3 nM and 41 nM, respectively.

B2: P1-070872 (P1-068761_H100G) (antibody, V domains shown)
VH: EVQLVESGGGLVQPGKSLRLSCAASGFTLEDEAMHWVRQAPGKGLEWVSGINWNSEEIGYADSVKGRFTISRDNAKNSLYLQMNSLRTEDTALYYCAKVPGYSGGWIDAEDVWGQGTMVTVSS
VL: not shown
On to B2, for which the dissociation constant (Kd) turned out to be 4.4 nM in assay [1] and 230 nM in assay [2].

B3: P1-068761_E30D_H100G (antibody, V domains shown)
VH: EVQLVESGGGLVQPGKSLRLSCAASGFTLDDEAMHWVRQAPGKGLEWVSGINWNSEEIGYADSVKGRFTISRDNAKNSLYLQMNSLRTEDTALYYCAKVPGYSGGWIDAEDVWGQGTMVTVSS
VL: not shown
B3: the figures for the Kd in assay [1] and in assay [2] were 15 nM and approximately 81 nM, respectively.

B4: P1-068761_E32Y_H100G (antibody, V domains shown)
VH: EVQLVESGGGLVQPGKSLRLSCAASGFTLEDYAMHWVRQAPGKGLEWVSGINWNSEEIGYADSVKGRFTISRDNAKNSLYLQMNSLRTEDTALYYCAKVPGYSGGWIDAEDVWGQGTMVTVSS
VL: not shown
On to B4, for which the values for the Kd in assay [1], in assay [2] and in assay [3] were 0.48 nM, 5 nM and 72 nM, respectively.

B5: P1-068761_E56N_E100fF (antibody, V domains shown)
VH: EVQLVESGGGLVQPGKSLRLSCAASGFTLEDEAMHWVRQAPGKGLEWVSGINWNSENIGYADSVKGRFTISRDNAKNSLYLQMNSLRTEDTALYYCAKVPGYSHGWIDAFDVWGQGTMVTVSS
VL: not shown
B5: the Kd in assay [1] came out at 1.4 nM; in assay [2] it was 6.5 nM; in assay [3], 65 nM.

B6: P1-070864 (P1-068761_E30D) (antibody, V domains shown)
VH: EVQLVESGGGLVQPGKSLRLSCAASGFTLDDEAMHWVRQAPGKGLEWVSGINWNSEEIGYADSVKGRFTISRDNAKNSLYLQMNSLRTEDTALYYCAKVPGYSHGWIDAEDVWGQGTMVTVSS
VL: not shown
Take B6: the results for the Kd in assay [1] and in assay [2] were 8.3 nM and 370 nM, respectively.

B7: P1-070916 (P1-068767_D52N_E55A) (antibody, V domains shown)
VH: EVQLVESGGGLVQPGKSLRLSCAASGFTLEDYAMHWVRQAPGKGLEWVSGINWNSANIGYADSVKGRFTISRDNAKNSLYLQMNSLRTEDTALYYCAKVPGYSGGWIDAEDDWGQGTMVTVSS
VL: not shown
Regarding B7, the Kd in assay [4] came out at 4 nM; in assay [5] it was 120 nM.

B8: P1-070900 (P1-068761_E56N_H100G) (antibody, V domains shown)
VH: EVQLVESGGGLVQPGKSLRLSCAASGFTLEDEAMHWVRQAPGKGLEWVSGINWNSENIGYADSVKGRFTISRDNAKNSLYLQMNSLRTEDTALYYCAKVPGYSGGWIDAEDVWGQGTMVTVSS
VL: not shown
In assay [1], B8 displayed a Kd of 10 nM. This counts as double-digit nanomolar.

B9: P1-068761.IgG1.3 (antibody, V domains shown)
VH: EVQLVESGGGLVQPGKSLRLSCAASGFTLEDEAMHWVRQAPGKGLEWVSGINWNSEEIGYADSVKGRFTISRDNAKNSLYLQMNSLRTEDTALYYCAKVPGYSHGWIDAEDVWGQGTMVTVSS
VL: not shown
As to B9, the results for the Kd in assay [1] and in assay [2] were 2.6 nM and 71 nM, respectively.

B10: P1-070914 (P1-068767_E30D_D52N) (antibody, V domains shown)
VH: EVQLVESGGGLVQPGKSLRLSCAASGFTLDDYAMHWVRQAPGKGLEWVSGINWNSENIGYADSVKGRFTISRDNAKNSLYLQMNSLRTEDTALYYCAKVPGYSGGWIDAEDDWGQGTMVTVSS
VL: not shown
With B10, the equilibrium dissociation constant (Kd) in assay [4] worked out at 5.8 nM; in assay [5], 120 nM.

B11: P1-068767_E30D_E100fF (antibody, V domains shown)
VH: EVQLVESGGGLVQPGKSLRLSCAASGFTLDDYAMHWVRQAPGKGLEWVSGIDWNSENIGYADSVKGRFTISRDNAKNSLYLQMNSLRTEDTALYYCAKVPGYSGGWIDAFDDWGQGTMVTVSS
VL: not shown
As to B11, the Kd was approximately 82 nM in assay [4] and 10000 nM in assay [5].

B12: P1-068767_E55A_E100fF (antibody, V domains shown)
VH: EVQLVESGGGLVQPGKSLRLSCAASGFTLEDYAMHWVRQAPGKGLEWVSGIDWNSANIGYADSVKGRFTISRDNAKNSLYLQMNSLRTEDTALYYCAKVPGYSGGWIDAFDDWGQGTMVTVSS
VL: not shown
B12: in assay [4], binding was characterised by a dissociation constant (Kd) of 62 nM.

B13: P1-068761_E32Y_E100fF (antibody, V domains shown)
VH: EVQLVESGGGLVQPGKSLRLSCAASGFTLEDYAMHWVRQAPGKGLEWVSGINWNSEEIGYADSVKGRFTISRDNAKNSLYLQMNSLRTEDTALYYCAKVPGYSHGWIDAFDVWGQGTMVTVSS
VL: not shown
As for B13, the Kd in assay [1] was 0.25 nM; in assay [2], 1.1 nM; in assay [3], 3.7 nM.

B14: P1-068761_E100fF (antibody, V domains shown)
VH: EVQLVESGGGLVQPGKSLRLSCAASGFTLEDEAMHWVRQAPGKGLEWVSGINWNSEEIGYADSVKGRFTISRDNAKNSLYLQMNSLRTEDTALYYCAKVPGYSHGWIDAFDVWGQGTMVTVSS
VL: not shown
B14: the figures for the dissociation constant (Kd) in assay [1], in assay [2] and in assay [3] were 0.19 nM, 1.3 nM and 20 nM, respectively.

B15: P1-068761_E30D_E56N (antibody, V domains shown)
VH: EVQLVESGGGLVQPGKSLRLSCAASGFTLDDEAMHWVRQAPGKGLEWVSGINWNSENIGYADSVKGRFTISRDNAKNSLYLQMNSLRTEDTALYYCAKVPGYSHGWIDAEDVWGQGTMVTVSS
VL: not shown
For the molecule B15, the Kd in assay [1] was 50 nM; in assay [2], approximately 32 nM.

B16: P1-070878 (P1-068761_E55A_E56N) (antibody, V domains shown)
VH: EVQLVESGGGLVQPGKSLRLSCAASGFTLEDEAMHWVRQAPGKGLEWVSGINWNSANIGYADSVKGRFTISRDNAKNSLYLQMNSLRTEDTALYYCAKVPGYSHGWIDAEDVWGQGTMVTVSS
VL: not shown
Turning to B16, the figures for the Kd in assay [1] and in assay [2] were 21 nM and 210 nM, respectively.

B17: P1-070908 (P1-068767_E55A) (antibody, V domains shown)
VH: EVQLVESGGGLVQPGKSLRLSCAASGFTLEDYAMHWVRQAPGKGLEWVSGIDWNSANIGYADSVKGRFTISRDNAKNSLYLQMNSLRTEDTALYYCAKVPGYSGGWIDAEDDWGQGTMVTVSS
VL: not shown
On to B17, for which the values for the Kd in assay [4] and in assay [5] were 5.7 nM and 380 nM, respectively.

B18: P1-068767_D52N_E100fF (antibody, V domains shown)
VH: EVQLVESGGGLVQPGKSLRLSCAASGFTLEDYAMHWVRQAPGKGLEWVSGINWNSENIGYADSVKGRFTISRDNAKNSLYLQMNSLRTEDTALYYCAKVPGYSGGWIDAFDDWGQGTMVTVSS
VL: not shown
In the case of B18, the Kd in assay [4] was 20 nM; in assay [5], approximately 39 nM.

B19: P1-068767_E100fF (antibody, V domains shown)
VH: EVQLVESGGGLVQPGKSLRLSCAASGFTLEDYAMHWVRQAPGKGLEWVSGIDWNSENIGYADSVKGRFTISRDNAKNSLYLQMNSLRTEDTALYYCAKVPGYSGGWIDAFDDWGQGTMVTVSS
VL: not shown
As for B19, the Kd in assay [4] was approximately 42 nM; in assay [5], 5200 nM.

B20: P1-068761_E32Y_E55A (antibody, V domains shown)
VH: EVQLVESGGGLVQPGKSLRLSCAASGFTLEDYAMHWVRQAPGKGLEWVSGINWNSAEIGYADSVKGRFTISRDNAKNSLYLQMNSLRTEDTALYYCAKVPGYSHGWIDAEDVWGQGTMVTVSS
VL: not shown
On to B20, for which the Kd in assay [1] is 0.31 nM; in assay [2], 2 nM; in assay [3], 23 nM.

B21: P1-070904 (P1-068767_E30D) (antibody, V domains shown)
VH: EVQLVESGGGLVQPGKSLRLSCAASGFTLDDYAMHWVRQAPGKGLEWVSGIDWNSENIGYADSVKGRFTISRDNAKNSLYLQMNSLRTEDTALYYCAKVPGYSGGWIDAEDDWGQGTMVTVSS
VL: not shown
As for B21, in assay [4], the Kd is 9.6 nM.

B22: P1-070870 (P1-068761_E56N) (antibody, V domains shown)
VH: EVQLVESGGGLVQPGKSLRLSCAASGFTLEDEAMHWVRQAPGKGLEWVSGINWNSENIGYADSVKGRFTISRDNAKNSLYLQMNSLRTEDTALYYCAKVPGYSHGWIDAEDVWGQGTMVTVSS
VL: not shown
In the case of B22, the dissociation constant Kd is 19 nM in assay [1] and approximately 8200 nM in assay [2].

B23: P1-070890 (P1-068761_E30D_E55A) (antibody, V domains shown)
VH: EVQLVESGGGLVQPGKSLRLSCAASGFTLDDEAMHWVRQAPGKGLEWVSGINWNSAEIGYADSVKGRFTISRDNAKNSLYLQMNSLRTEDTALYYCAKVPGYSHGWIDAEDVWGQGTMVTVSS
VL: not shown
Regarding B23, the Kd was 12 nM in assay [1] and approximately 110 nM in assay [2].

B24: P1-070906 (P1-068767_D52N) (antibody, V domains shown)
VH: EVQLVESGGGLVQPGKSLRLSCAASGFTLEDYAMHWVRQAPGKGLEWVSGINWNSENIGYADSVKGRFTISRDNAKNSLYLQMNSLRTEDTALYYCAKVPGYSGGWIDAEDDWGQGTMVTVSS
VL: not shown
Take B24: the equilibrium dissociation constant (Kd) in assay [4] came out at 3.2 nM; in assay [5] it was 210 nM.

B25: P1-070922 (P1-068767_E30D_E55A) (antibody, V domains shown)
VH: EVQLVESGGGLVQPGKSLRLSCAASGFTLDDYAMHWVRQAPGKGLEWVSGIDWNSANIGYADSVKGRFTISRDNAKNSLYLQMNSLRTEDTALYYCAKVPGYSGGWIDAEDDWGQGTMVTVSS
VL: not shown
B25 displayed a Kd in assay [4] of 8.3 nM.

B26: P1-070868 (P1-068761_E55A) (antibody, V domains shown)
VH: EVQLVESGGGLVQPGKSLRLSCAASGFTLEDEAMHWVRQAPGKGLEWVSGINWNSAEIGYADSVKGRFTISRDNAKNSLYLQMNSLRTEDTALYYCAKVPGYSHGWIDAEDVWGQGTMVTVSS
VL: not shown
On to B26, for which the results for the dissociation constant Kd in assay [1] and in assay [2] were 3.4 nM and 120 nM, respectively.
